Columns and labels:
[1] = tested on: rabbit anti-mouse IgG antibody (Oryctolagus cuniculus); test: SPR; settings: RNA with 5' A24 extension captured on biotin-dT24 SA chip; 25 C
[2] = tested on: goat IgG (Capra hircus); test: filter; settings: specificity control, 100 nM protein
[3] = tested on: mouse IgG (Mus musculus); test: filter; settings: specificity control, 100 nM protein
[4] = tested on: rabbit anti-GST IgG + glutathione-S-transferase (mixture) (Oryctolagus cuniculus / Schistosoma japonicum); test: filter; settings: 100 nM GST + 100 nM anti-GST IgG
[5] = tested on: rabbit anti-GST antibody (IgG) (Oryctolagus cuniculus); test: filter; settings: 20 nM RNA, 100 nM protein
[6] = tested on: rabbit anti-mouse IgG antibody (Oryctolagus cuniculus); test: filter; settings: 20 nM RNA, 100 nM protein, 5 mM MgCl2, RT
[7] = target: glutathione-S-transferase (GST) (Schistosoma japonicum, UniProt P08515 P08515:2-218); test: filter; specificity control, 100 nM protein; settings: tags: prepared in laboratory from GE vector; chain copies: 2; label: 32P (filter assay)
Experimental: (§1) The RNAs (20 nM) set forth in SEQ ID NOS: 1 to 5, and the materials (100 nM each) shown in “Material List” below, were incubated in a binding buffer, and then, their binding strength was measured in accordance with the methods described in “Radiolabeling” and “Binding Experiment” below.
(§2) The resulting mixture was introduced onto a filter (trade name: MF-membrane filter, manufactured by Millipore) by way of suctioning it with a suction device, and then, the filter was washed with a binding buffer that was 20 times the volume of the mixture. The radiation intensity of the filter obtained in this manner was measured with a Bio-Imaging Analyzer BAS-2500 (using, as an imaging plate, BAS-MS2040 manufactured by Fuji Film Co., Ltd.) manufactured by Fuji Film Co., Ltd. The radiation intensity was visualized with Image Reader (Fuji Film Co., Ltd.), and the obtained data were converted into numerical values with Image Gauge ver. 4.0 (Fuji Film Co., Ltd.).

[8] = target: bovine serum albumin (Bos taurus, UniProt P02769 P02769:25-607); test: filter; specificity control, 100 nM protein; buffer only 0.3%; settings: tags: SIGMA; label: 32P (filter assay)
Experimental: as §1, §2

bovine serum albumin, sequence (P02769 25-607, one chain of several): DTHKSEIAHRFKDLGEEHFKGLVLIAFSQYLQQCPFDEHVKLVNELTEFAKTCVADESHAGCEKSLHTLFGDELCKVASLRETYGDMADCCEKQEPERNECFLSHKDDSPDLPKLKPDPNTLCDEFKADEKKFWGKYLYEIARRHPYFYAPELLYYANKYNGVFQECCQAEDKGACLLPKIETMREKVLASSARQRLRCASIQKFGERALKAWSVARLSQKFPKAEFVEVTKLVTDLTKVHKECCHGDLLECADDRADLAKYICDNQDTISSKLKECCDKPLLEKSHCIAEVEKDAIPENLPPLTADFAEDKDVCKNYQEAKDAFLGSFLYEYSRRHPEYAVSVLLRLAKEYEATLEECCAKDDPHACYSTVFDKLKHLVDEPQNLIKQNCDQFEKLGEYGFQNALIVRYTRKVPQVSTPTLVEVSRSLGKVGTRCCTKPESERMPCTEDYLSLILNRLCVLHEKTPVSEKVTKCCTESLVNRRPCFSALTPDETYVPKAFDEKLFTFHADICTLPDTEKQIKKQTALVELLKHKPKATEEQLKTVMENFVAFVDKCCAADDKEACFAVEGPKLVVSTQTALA
glutathione-S-transferase (GST), sequence (P08515 2-218, one chain of several): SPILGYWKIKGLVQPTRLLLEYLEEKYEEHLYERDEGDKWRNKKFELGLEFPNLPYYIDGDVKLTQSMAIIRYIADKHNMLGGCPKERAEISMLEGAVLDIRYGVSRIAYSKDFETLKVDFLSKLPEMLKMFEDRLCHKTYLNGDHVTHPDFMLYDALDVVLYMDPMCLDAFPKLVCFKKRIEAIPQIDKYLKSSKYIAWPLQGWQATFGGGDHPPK

Q: With “GGGAGAAUUCCGACCAGAAGCGCAAGCCGGCCCUUGGAAGGCUAGUCGGUCUUUCCUCUCUCCUCCUUCUUCU [SEQ ID NO: 4 RNA aptamer]” as the molecule, how does the Kd [1] read?
A: 103 nM

Q: What about the binding signal [2] of the same molecule?
A: 0.3 % bound

Q: What about the binding signal [3] of the same molecule?
A: 0.5 % bound

Q: And the binding signal [4]?
A: 20.7 % bound

Q: What about the binding signal ([5]; buffer only 0.3%) of the same molecule?
A: 23.4 % bound

Q: What about the binding signal [6] of the same molecule?
A: 23.4 % bound

Q: How did the Kd [1] turn out when “GGGAGAAUUCCGACCAGAAGCAAAUUGCCGGGCCUUGGAAGCCAAGUCGCUUUCCUCUCUCCUCCUUCUUCU [SEQ ID NO: 3 RNA aptamer]” was run?
A: 118 nM

Q: What about the binding signal [2] of the same molecule?
A: 1 % bound

Q: What about the binding signal [3] of the same molecule?
A: 1.8 % bound

Q: What about the binding signal [4] of the same molecule?
A: 14.4 % bound

Q: What about the binding signal ([5]; buffer only 0.3%) of the same molecule?
A: 20.9 % bound

Q: What about the binding signal [6] of the same molecule?
A: 20.9 % bound

Q: With “GGGAGAAUUCCGACCAGAAGUUUUUAAACCGCGCCUUGGAAGCGUACGUUGGCCUUUCCUCUCUCCUCCUUCUUCU [SEQ ID NO: 2 RNA aptamer]” as the molecule, how does the Kd [1] read?
A: 51.5 nM

Q: What about the binding signal [2] of the same molecule?
A: 0.7 % bound

Q: And the binding signal [3]?
A: 0.5 % bound

Q: And the binding signal [4]?
A: 14.2 % bound

Q: And the binding signal ([5]; buffer only 0.4%)?
A: 24.6 % bound

Q: And the binding signal [6]?
A: 24.6 % bound

Q: For “GGGAGAAUUCCGACCAGAAGUUCGAUACGCCGUGGGGUGACGUUGGCUACCUUUCCUCUCUCCUCCUUCUUCU [SEQ ID NO: 5 RNA aptamer]”, which Kd [1] is on record?
A: 0.0147 nM

Q: And the binding signal [2]?
A: 0.3 % bound

Q: What about the binding signal [3] of the same molecule?
A: 0.5 % bound

Q: And the binding signal [4]?
A: 48.8 % bound

Q: What about the binding signal ([5]; buffer only 0.3%) of the same molecule?
A: 58.1 % bound

Q: What about the binding signal [6] of the same molecule?
A: 58.1 % bound

Q: “GGGAGAAUUCCGACCAGAAGAAGUUCGAUACGCCGUGGGGUGACGUUGGCUGCCCUUUCCUCUCUCCUCCUUCUUCU [SEQ ID NO: 1 RNA aptamer]” was tested. Which Kd [1] did it give?
A: 0.013 nM

Q: What about the binding signal [2] of the same molecule?
A: 0.8 % bound

Q: And the binding signal [3]?
A: 0.6 % bound

Q: What about the binding signal [4] of the same molecule?
A: 13.6 % bound

Q: And the binding signal ([5]; buffer only 0.2%)?
A: 19.1 % bound

Q: And the binding signal ([6]; 50 mM HEPES pH 7.4, 150 mM NaCl)?
A: 19.1 % bound

B1: SEQ ID NO: 3 RNA aptamer (ssRNA)
RNA: GGGAGAAUUCCGACCAGAAGCAAAUUGCCGGGCCUUGGAAGCCAAGUCGCUUUCCUCUCUCCUCCUUCUUCU
Q: How did the binding signal [7] turn out when B1 was run?
A: 0.6 % bound

Q: What about the binding signal [8] of the same molecule?
A: 1 % bound

B2: SEQ ID NO: 4 RNA aptamer (ssRNA)
RNA: GGGAGAAUUCCGACCAGAAGCGCAAGCCGGCCCUUGGAAGGCUAGUCGGUCUUUCCUCUCUCCUCCUUCUUCU
Q: What does the source list for B2?
A: binding signal [7]: 0.4 % bound; binding signal [8]: 0.4 % bound

B3: SEQ ID NO: 5 RNA aptamer (ssRNA)
RNA: GGGAGAAUUCCGACCAGAAGUUCGAUACGCCGUGGGGUGACGUUGGCUACCUUUCCUCUCUCCUCCUUCUUCU
Q: For B3, which binding signal [7] is on record?
A: 0.6 % bound

Q: And the binding signal [8]?
A: 0.9 % bound

B4: SEQ ID NO: 1 RNA aptamer (ssRNA)
RNA: GGGAGAAUUCCGACCAGAAGAAGUUCGAUACGCCGUGGGGUGACGUUGGCUGCCCUUUCCUCUCUCCUCCUUCUUCU
Q: Which binding signal [7] does the source give for B4 here?
A: 0.7 % bound

B5: SEQ ID NO: 2 RNA aptamer (ssRNA)
RNA: GGGAGAAUUCCGACCAGAAGUUUUUAAACCGCGCCUUGGAAGCGUACGUUGGCCUUUCCUCUCUCCUCCUUCUUCU
Q: How did the binding signal [7] turn out when B5 was run?
A: 0.6 % bound
